Measurements: patent publication US20230220589A1
Where a chain is given by its changes, count along the chain named.

Columns and labels:
[1] = target: M44-modified G NTAA target peptides (M44-G-P2-peptide); experiment: encoding assay; P2 E;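 note: fraction of recording tags encoded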
[2] = target: M44-modified S NTAA target peptides; experiment: encoding assay; P2 Y
[3] = target: M44-modified H NTAA target peptides; experiment: encoding assay; P2 D;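 note: fraction of recording tags encoded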
[4] = target: M44-modified S NTAA target peptides; experiment: encoding assay; P2 D
[5] = target: M17-modified T NTAA target peptides; experiment: encoding assay; P2 E;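 note: fraction of recording tags encoded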
[6] = target: M17-modified D NTAA target peptides; experiment: encoding assay; P2 E;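 note: fraction of recording tags encoded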
[7] = target: M17-modified H NTAA target peptides; experiment: encoding assay; P2 E;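 note: fraction of recording tags encoded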
[8] = target: M17-modified W NTAA target peptides; experiment: encoding assay; P2 E;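 note: fraction of recording tags encoded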
[9] = target: M17-modified I NTAA target peptides; experiment: encoding assay; P2 E;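 note: fraction of recording tags encoded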
[10] = target: M17-modified E NTAA target peptides; experiment: encoding assay; P2 E;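 note: fraction of recording tags encoded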
[11] = target: M17-modified F NTAA target peptides; experiment: encoding assay; P2 E;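 note: fraction of recording tags encoded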
[12] = target: M17-modified V NTAA target peptides; experiment: encoding assay; P2 E;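 note: fraction of recording tags encoded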
[13] = target: M17-modified Q NTAA target peptides; experiment: encoding assay; P2 E;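 note: fraction of recording tags encoded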
[14] = target: M17-modified A NTAA target peptides; experiment: encoding assay; P2 E;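 note: fraction of recording tags encoded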
[15] = target: M17-modified Y NTAA target peptides (M17-Y-P2-peptide); experiment: encoding assay; P2 E;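 note: fraction of recording tags encoded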
[16] = target: M17-modified P NTAA target peptides; experiment: encoding assay; P2 E;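 note: fraction of recording tags encoded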
[17] = target: M17-modified S NTAA target peptides; experiment: encoding assay; P2 E;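 note: fraction of recording tags encoded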
[18] = target: M17-modified L NTAA target peptides; experiment: encoding assay; P2 E;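 note: fraction of recording tags encoded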
[19] = target: M17-modified N NTAA target peptides; experiment: encoding assay; P2 E;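 note: fraction of recording tags encoded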
[20] = target: M17-modified G NTAA target peptides; experiment: encoding assay; P2 E;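 note: fraction of recording tags encoded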
[21] = target: M17-modified M NTAA target peptides; experiment: encoding assay; P2 E;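 note: fraction of recording tags encoded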
[22] = target: M17-modified T NTAA target peptides; experiment: encoding assay; P2 Y;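 note: fraction of recording tags encoded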
[23] = target: M17-modified D NTAA target peptides; experiment: encoding assay; P2 Y;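 note: fraction of recording tags encoded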
[24] = target: M17-modified H NTAA target peptides; experiment: encoding assay; P2 Y;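 note: fraction of recording tags encoded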
[25] = target: M17-modified W NTAA target peptides; experiment: encoding assay; P2 Y;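 note: fraction of recording tags encoded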
[26] = target: M17-modified I NTAA target peptides; experiment: encoding assay; P2 Y;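 note: fraction of recording tags encoded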
[27] = target: M17-modified E NTAA target peptides; experiment: encoding assay; P2 Y;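 note: fraction of recording tags encoded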
[28] = target: M17-modified F NTAA target peptides; experiment: encoding assay; P2 Y;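 note: fraction of recording tags encoded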
[29] = target: M17-modified Q NTAA target peptides; experiment: encoding assay; P2 Y;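 note: fraction of recording tags encoded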
[30] = target: M17-modified A NTAA target peptides; experiment: encoding assay; P2 Y;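 note: fraction of recording tags encoded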
[31] = target: M17-modified Y NTAA target peptides (M17-Y-P2-peptide); experiment: encoding assay; P2 Y;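 note: fraction of recording tags encoded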
[32] = target: M17-modified P NTAA target peptides; experiment: encoding assay; P2 Y;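 note: fraction of recording tags encoded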
[33] = target: M17-modified S NTAA target peptides; experiment: encoding assay; P2 Y;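 note: fraction of recording tags encoded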
[34] = target: M17-modified L NTAA target peptides; experiment: encoding assay; P2 Y;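 note: fraction of recording tags encoded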
[35] = target: M17-modified N NTAA target peptides; experiment: encoding assay; P2 Y;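 note: fraction of recording tags encoded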
[36] = target: M17-modified G NTAA target peptides; experiment: encoding assay; P2 Y;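 note: fraction of recording tags encoded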
[37] = target: M17-modified M NTAA target peptides; experiment: encoding assay; P2 Y;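 note: fraction of recording tags encoded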
[38] = target: M17-modified T NTAA target peptides; experiment: encoding assay; P2 D;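 note: fraction of recording tags encoded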
[39] = target: M17-modified H NTAA target peptides; experiment: encoding assay; P2 D;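 note: fraction of recording tags encoded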
[40] = target: M17-modified W NTAA target peptides; experiment: encoding assay; P2 D;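 note: fraction of recording tags encoded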
[41] = target: M17-modified I NTAA target peptides; experiment: encoding assay; P2 D;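 note: fraction of recording tags encoded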
[42] = target: M17-modified V NTAA target peptides; experiment: encoding assay; P2 D;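 note: fraction of recording tags encoded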
[43] = target: M17-modified S NTAA target peptides; experiment: encoding assay; P2 D;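 note: fraction of recording tags encoded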
[44] = target: M17-modified L NTAA target peptides; experiment: encoding assay; P2 D;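 note: fraction of recording tags encoded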
[45] = target: M17-modified M NTAA target peptides; experiment: encoding assay; P2 D;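 note: fraction of recording tags encoded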
[46] = target: M17-modified T NTAA target peptides; experiment: encoding assay; P2 L;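 note: fraction of recording tags encoded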
[47] = target: M17-modified D NTAA target peptides; experiment: encoding assay; P2 L;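 note: fraction of recording tags encoded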
[48] = target: M17-modified I NTAA target peptides; experiment: encoding assay; P2 L;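 note: fraction of recording tags encoded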
[49] = target: M17-modified F NTAA target peptides; experiment: encoding assay; P2 L;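 note: fraction of recording tags encoded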
[50] = target: M17-modified V NTAA target peptides; experiment: encoding assay; P2 L;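 note: fraction of recording tags encoded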
[51] = target: M17-modified A NTAA target peptides; experiment: encoding assay; P2 L;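 note: fraction of recording tags encoded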
[52] = target: M17-modified P NTAA target peptides; experiment: encoding assay; P2 L;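 note: fraction of recording tags encoded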
[53] = target: M17-modified N NTAA target peptides; experiment: encoding assay; P2 L;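 note: fraction of recording tags encoded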
[54] = target: M17-modified G NTAA target peptides; experiment: encoding assay; P2 L;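 note: fraction of recording tags encoded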
[55] = target: M17-modified M NTAA target peptides; experiment: encoding assay; P2 L;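 note: fraction of recording tags encoded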

B1: engineered M44-L binder (SEQ ID NO: 31) (designed binder, not shown: small tags and cut ends; large carriers)
chain: QDSTQNLIPAPPLISVPLQPGFWTERFQGRWFLVGFAGNAVQKERQSRLTMQSLILELQEDNSYNITAINVRGQGCRYIISTLVPSSRPGQFTLGNIHSYPQIQSLDVQVADTDYDQFAMVFLQGTSENKQYFEVALAGRTKGLSDELKERFVSFAKSLGLKDNNIVFSVPTDQCIDN
encoding yield [1]: 0.01 | encoding yield [2]: 0.01 | encoding yield [3]: 0.01 | encoding yield [4]: 0.01

B2: engineered M17-Y binder (SEQ ID NO: 61) (designed binder, not shown: small tags and cut ends; large carriers)
chain: TVPDRSEIAGKWYVVALASNTEFYLREKDWVKSAMARISFLGEDELKVSSAVPSPNGCYKVERTWKKTSDDGEVYNSRAAKLKVEVLDTDYKSYAVIYATRVKDGRTDHQMILYSRSPEVSPAATAIFRKLAGERNYTDEMVAMLPRQEECTVDEV
encoding yield [5]: 0.01 | encoding yield [6]: 0.02 | encoding yield [7]: 0.02 | encoding yield [8]: 0.03 | encoding yield [9]: 0.01 | encoding yield [10]: 0.02 | encoding yield [11]: 0.01 | encoding yield [12]: 0.02 | encoding yield [13]: 0.02 | encoding yield [14]: 0.02 | encoding yield [15]: 0.07 | encoding yield [16]: 0.02 | encoding yield [17]: 0.02 | encoding yield [18]: 0.02 | encoding yield [19]: 0.01 | encoding yield [20]: 0.01 | encoding yield [21]: 0.01 | encoding yield [22]: 0.04 | encoding yield [23]: 0.03 | encoding yield [24]: 0.06 | encoding yield [25]: 0.07 | encoding yield [26]: 0.1 | encoding yield [27]: 0.01 | encoding yield [28]: 0.09 | encoding yield [29]: 0.01 | encoding yield [30]: 0.01 | encoding yield [31]: 0.15 | encoding yield [32]: 0.03 | encoding yield [33]: 0.01 | encoding yield [34]: 0.1 | encoding yield [35]: 0.03 | encoding yield [36]: 0.04 | encoding yield [37]: 0.04 | encoding yield [38]: 0.01 | encoding yield [39]: 0.01 | encoding yield [40]: 0.02 | encoding yield [41]: 0.01 | encoding yield [42]: 0.02 | encoding yield [43]: 0.01 | encoding yield [44]: 0.02 | encoding yield [45]: 0.02 | encoding yield [46]: 0.01 | encoding yield [47]: 0.02 | encoding yield [48]: 0.01 | encoding yield [49]: 0.04 | encoding yield [50]: 0.02 | encoding yield [51]: 0.02 | encoding yield [52]: 0.02 | encoding yield [53]: 0.03 | encoding yield [54]: 0.02 | encoding yield [55]: 0.03

B3: upgraded binder after additional maturation round (SEQ ID NO: 62) (designed binder, not shown: small tags and cut ends; large carriers)
chain: B2 chain with E27G, W30R, A36V, L41Q, G105R, E119D
encoding yield [5]: 0.02 | encoding yield [6]: 0.02 | encoding yield [7]: 0.02 | encoding yield [8]: 0.06 | encoding yield [9]: 0.02 | encoding yield [10]: 0.03 | encoding yield [11]: 0.02 | encoding yield [12]: 0.03 | encoding yield [13]: 0.03 | encoding yield [14]: 0.03 | encoding yield [15]: 0.16 | encoding yield [16]: 0.04 | encoding yield [17]: 0.03 | encoding yield [18]: 0.02 | encoding yield [19]: 0.02 | encoding yield [20]: 0.02 | encoding yield [21]: 0.01 | encoding yield [22]: 0.04 | encoding yield [23]: 0.03 | encoding yield [24]: 0.06 | encoding yield [25]: 0.12 | encoding yield [26]: 0.12 | encoding yield [27]: 0.03 | encoding yield [28]: 0.1 | encoding yield [29]: 0.01 | encoding yield [30]: 0.03 | encoding yield [31]: 0.21 | encoding yield [32]: 0.05 | encoding yield [33]: 0.01 | encoding yield [34]: 0.11 | encoding yield [35]: 0.02 | encoding yield [36]: 0.06 | encoding yield [37]: 0.02 | encoding yield [38]: 0.01 | encoding yield [39]: 0.02 | encoding yield [40]: 0.03 | encoding yield [41]: 0.02 | encoding yield [42]: 0.02 | encoding yield [43]: 0.01 | encoding yield [44]: 0.03 | encoding yield [45]: 0.03 | encoding yield [46]: 0.02 | encoding yield [47]: 0.02 | encoding yield [48]: 0.06 | encoding yield [49]: 0.08 | encoding yield [50]: 0.04 | encoding yield [51]: 0.02 | encoding yield [52]: 0.03 | encoding yield [53]: 0.03 | encoding yield [54]: 0.02 | encoding yield [55]: 0.03

B4: engineered M44-A binder (SEQ ID NO: 42) (designed binder, not shown: small tags and cut ends; large carriers)
chain: QVSVQPNFQQDKFLGRWFVAGLASNSSWDREKVAALSGAKMVVAPATDGGLNVTRTMLRKNQCETYTGLLQPAGSLGSYSWRSPHPGSTGSESVVETDYDQYALVYGQGSKGPGEDLRAAALWSRTQTPRAELKEKFTAFSKAQGFTEDTIVFLPQTDKCMTEQ
encoding yield [1]: 0.01 | encoding yield [2]: 0.01 | encoding yield [3]: 0.01 | encoding yield [4]: 0.01
